In patent US20090239794A1, “HCV F PROTEIN AND USES THEREOF” (priority 2004, published 2009):

Molecular target: HLA-A*0201 on the surface of T2 cells (human)
Test: T2 peptide binding assay, W6/32-FITC flow cytometry

Row | peak fluorescence, % of the level obtained with NS3 1406-1415 [%] | Binder
1 | 79.2 | CCRAGALDWVCARRE (modifications not checked) [F protein peptide F37-51]
2 | 83.2 | PVALGLAGAPQTPGV (modifications not checked) [F protein peptide F101-115]
3 | 87.6 | VRSLVEFTCCRAGAL (modifications not checked) [F protein peptide F29-43]
